Assay results published in paper PMC4945140 (Molecular Biology of the Cell, 2016).

B1: Cdc11-capped septin hetero-octamers (Cdc11-Cdc12-Cdc3-Cdc10-Cdc10-Cdc3-Cdc12-Cdc11) (complex)
chain 1: MSGIIDASSALRKRKHLKRGITFTVMIVGQSGSGRSTFINTLCGQQVVDTSTTILLPTDTSTEIDLQLREETVELEDDEGVKIQLNIIDTPGFGDSLDNSPSFEIISDYIRHQYDEILLEESRVRRNPRFKDGRVHCCLYLINPTGHGLKEIDVEFIRQLGSLVNIIPVISKSDSLTRDELKLNKKLIMEDIDRWNLPIYNFPFDEDEISDEDYETNMYLRTLLPFAIIGSNEVYEMGGDVGTIRGRKYPWGILDVEDSSISDFVILRNALLISHLHDLKNYTHEILYERYRTEALSGESVAAESIRPNLTKLNGSSSSSTTTRRNTNPFKQSNNINNDVLNPASDMHGQSTGENNETYMTREEQIRLEEERLKAFEERVQQELLLKRQELLQREKELREIEARLEKEAKIKQEE
chain 2: MSAATATAAPVPPPVGISNLPNQRYKIVNEEGGTFTVMLCGESGLGKTTFINTLFQTVLKRADGQQHRQEPIRKTVEIDITRALLEEKHFELRVNVIDTPGFGDNVNNNKAWQPLVDFIDDQHDSYMRQEQQPYRTKKFDLRVHAVLYFIRPTGHGLKPIDIETMKRLSTRANLIPVIAKADTLTAQELQQFKSRIRQVIEAQEIRIFTPPLDADSKEDAKSGSNPDSAAVEHARQLIEAMPFAIVGSEKKFDNGQGTQVVARKYPWGLVEIENDSHCDFRKLRALLLRTYLLDLISTTQEMHYETYRRLRLEGHENTGEGNEDFTLPAIAPARKLSHNPRYKEEENALKKYFTDQVKAEEQRFRQWEQNIVNERIRLNGDLEEIQGKVKKLEEQVKSLQVKKSHLK
chain 3: MSLKEEQVSIKQDPEQEERQHDQFNDVQIKQESQDHDGVDSQYTNGTQNDDSERFEAAESDVKVEPGLGMGITSSQSEKGQVLPDQPEIKFIRRQINGYVGFANLPKQWHRRSIKNGFSFNLLCVGPDGIGKTTLMKTLFNNDDIEANLVKDYEEELANDQEEEEGQGEGHENQSQEQRHKVKIKSYESVIEENGVKLNLNVIDTEGFGDFLNNDQKSWDPIIKEIDSRFDQYLDAENKINRHSINDKRIHACLYFIEPTGHYLKPLDLKFMQSVYEKCNLIPVIAKSDILTDEEILSFKKTIMNQLIQSNIELFKPPIYSNDDAENSHLSERLFSSLPYAVIGSNDIVENYSGNQVRGRSYPWGVIEVDNDNHSDFNLLKNLLIKQFMEELKERTSKILYENYRSSKLAKLGIKQDNSVFKEFDPISKQQEEKTLHEAKLAKLEIEMKTVFQQKVSEKEKKLQKSETELFARHKEMKEKLTKQLKALEDKKKQLELSINSASPNVNHSPVPTKKKGFLR
chain 4: MDPLSSVQPASYVGFDTITNQIEHRLLKKGFQFNIMVVGQSGLGKSTLINTLFASHLIDSATGDDISALPVTKTTEMKISTHTLVEDRVRLNINVIDTPGFGDFIDNSKAWEPIVKYIKEQHSQYLRKELTAQRERFITDTRVHAILYFLQPNGKELSRLDVEALKRLTEIANVIPVIGKSDTLTLDERTEFRELIQNEFEKYNFKIYPYDSEELTDEELELNRSVRSIIPFAVVGSENEIEINGETFRGRKTRWSAINVEDINQCDFVYLREFLIRTHLQDLIETTSYIHYEGFRARQLIALKENANSRSSAHMSSNAIQR

Tests used:
co-sedimentation = biological target: the molecule itself; assay: co-sedimentation
[1] = biological target: B1; assay: co-sedimentation

Binder	binding result (co-sedimentation)	binding result [1]
B1	binds	
His6-MBP-Hsl1(611–950) fusion protein (domain or fragment) RETVHDNEMPLPQLPKSPSRYSLSRRAIHASPSTKSIHKSLSRKNIAATVAARRTLQNSASKRSLYSLQSISKRSLNLNDLLVFDDPLPSKKPASENVNKSEPHSLESDSDFEILCDQILFGNALDRILEEEEDNEKERDTQRQRQNDTKSSADTFTISGVSTNKENEGPEYPTKIEKNQFNMSYKPSENMSGLSSFPIFEKENTLSSSYLEEQKPKRAALSDITNSFNKMNKQEGMRIEKKIQREQLQKKNDRPSPLKPIQHQELRVNSLPNDQGKPSLSLDPRRNISQPVNSKVESLLQGLKFKKEPASHWTHERGSLFMSEHVEDEKPVKASDVSIE		binds
